B1: antibody 1D7 (antibody, V domains shown)
VH: QVQLVQSGAEVKTPGSSVKVSCKASGGSFSNYAISWVRQAPGQGLEWMGRIIATLGISNYAQKFQGRVTMTADKSTSTAYMELSSLRSEDTAVYYCASPITNFGVLIEVDAFHIWGQGTMVTVSS
VL: EIVLTQSPFTLSLSPGERATLSCGASQSVSSSYLAWYQQKPGLAPRLLIYDGSSRATDIPDRFSGSGSGTDFTLTISRLEPEDFAMYYCQQYSTSPLTFGGGTKVEIK
B2: antibody 3C11 (antibody, V domains shown)
VH: EVQLVESGGGLVQPGGSLRLSCAASGFAFSTYEMNWVRQAPGKGLEWVSYIHNSGNPVYYADSVKGRFTISRDNAENSLYLQMNSLRAEDTAIYYCARALRYSTSWYDYWGQGTLVTVSS
VL: EIVLTQSPVSLSLSPGERATLSCRASQSVSSYLAWYQQKPGQAPRLFIYDASKRATGIPARFSGSGSGTDFTLTISSLEPEDFAVYYCQQRSNWPRTFGQGTKVEIK
B3: antibody 3G10 (antibody, V domains shown)
VH: EVQLVESGGGLVQPGESLRLSCAASGLTVSSNYMSWVRQAPGKGLEWVSVIYAGGSTFYADSVKGRFTISRDNSKNTLYLQMNSLRAEDMAIYYCARDLSYYGMDVWGQGTTVTVSS
VL: DIQLTQFPFSLSASVGDRVTITCRASQGISTYLAWYQQKPGRAPKLLIYAASTLQSGVPSRFSGSGSGTEFTLTISSLQPEDFATYYCQLLNSYPVHFGQGTKLEIK

Key:
[1] = molecular target: T1, SARS-CoV-2 RBD (receptor binding domain) with Avi-tag, biotinylated (SARS-CoV-2, WH-1 (Wuhan-Hu-1, MN908947), UniProt P0DTC2); test: cell-based or functional assay
[2] = molecular target: T1, SARS-CoV-2 RBD (receptor binding …); test: BLI; biotinylated RBD (5 μg/mL in PBST: PBS, 0.02% Tween 20, 0.1% BSA) immobilised on streptavidin biosensors; antibodies 500-7.8125 nM, 120 s association, 300 s dissociation; 1:1 binding model; settings: both partners purified
[3] = molecular target: T2, SARS-CoV-2 RBD as crystallised with 3G10 and 3C11 (SARS-CoV-2, prototype (WH-1)); test: crystal structure; settings: both partners purified
T2 construct: also called prototype (PT) RBD

Binder	IC50 of neutralisation of SARS-CoV-2 pseudovirus (WH-1), luciferase read-out on Vero cells [1] [µg/mL]	IC50 of neutralisation of authentic SARS-CoV-2 WH-1 virus, CPE-based method on Vero cells [1] [µg/mL]	Kd [2] [nM]	binding result [3]
B1	< 0.1	0.009	< 0.001	–
B2	< 0.1	0.028	5.29	binds
B3	< 0.1	0.028	1.37	binds

Reference: PMC10207940, “Characterization of RBD-specific cross-neutralizing antibodies responses against SARS-CoV-2 variants from COVID-19 convalescents” (Frontiers in Immunology, 2023)
